The term IC50 denotes the concentration that gives 50% inhibition. A word on the Km: it is the substrate concentration at which the rate is half of its maximum. By Vmax is commonly meant the rate approached at saturating substrate.

For data set [1], the target named is T1, malate:quinone oxidoreductase (TgMQO) (Toxoplasma gondii, UniProt Q1KSF3).
T1 construct: gene mqo; lacking the mitochondrial targeting signal (Δ1-37 residues), His-tag purified
T1 sequence (Q1KSF3 38-549): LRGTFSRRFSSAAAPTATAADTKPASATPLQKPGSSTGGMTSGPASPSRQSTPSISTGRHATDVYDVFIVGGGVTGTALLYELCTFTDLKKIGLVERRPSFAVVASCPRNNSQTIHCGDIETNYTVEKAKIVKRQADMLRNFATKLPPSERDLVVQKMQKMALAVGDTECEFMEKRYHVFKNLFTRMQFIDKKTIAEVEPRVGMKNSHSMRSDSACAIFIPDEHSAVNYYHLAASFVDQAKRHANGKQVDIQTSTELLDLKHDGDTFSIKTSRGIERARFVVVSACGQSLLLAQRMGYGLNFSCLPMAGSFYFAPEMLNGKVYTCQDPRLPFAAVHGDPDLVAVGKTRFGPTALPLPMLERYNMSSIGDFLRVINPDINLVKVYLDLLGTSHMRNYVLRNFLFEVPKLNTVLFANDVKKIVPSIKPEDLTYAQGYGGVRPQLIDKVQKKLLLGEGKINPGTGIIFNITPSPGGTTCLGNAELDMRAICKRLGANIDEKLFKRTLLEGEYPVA
In words: spectrophotometric dUQ reduction at […] nm, purified recombinant enzyme. The data set is classed as biochemical.

Substrate in data set [2]: O=C(O)C[C@H](O)C(=O)O
In words: purified protein. Conditions: FAD malate binding site.

Substrate in data set [3]: COC1=C(OC)C(=O)C(CC=C(C)C)=C(C)C1=O
In words: purified protein. Conditions: FAD ubiquinone binding site.

Substrate in data set [4]: COC1=C(OC)C(=O)C(C)=CC1=O
In words: purified protein. Conditions: FAD ubiquinone binding site.

Substrate in data set [5]: CCCCCCCCCCC1=C(C)C(=O)C(OC)=C(OC)C1=O
The data set can be described thus: purified protein. The note with it: FAD ubiquinone binding site.

Substrate in data set [6]: COC1=C(OC)C(=O)C(C/C=C(\C)CC/C=C(\C)CC/C=C(\C)CC/C=C(\C)CC/C=C(\C)CCC=C(C)C)=C(C)C1=O
The data set can be described thus: purified protein. Conditions: FAD ubiquinone binding site.

Substrate in data set [7]: COC1=C(OC)C(=O)C(C/C=C(\C)CC/C=C(\C)CC/C=C(\C)CCC=C(C)C)=C(C)C1=O
In words: purified protein. Conditions: FAD ubiquinone binding site.

Substrate in data set [8]: COC1=C(OC)C(=O)C(C/C=C(\C)CCC=C(C)C)=C(C)C1=O
The data set can be described thus: purified protein. Conditions: FAD ubiquinone binding site.

Turning to `CC(C)=CCC/C(C)=C/CC/C(C)=C/Cc1c(O)c2ccccc2oc1=O` [Ferulenol], the IC50 in data set [1] is 822 ± 151 nM.

B1: malate:quinone oxidoreductase (TgMQO) (Toxoplasma gondii) (protein)
chain: T1 sequence (Q1KSF3 38-549)
As for B1, the Km was 370 ± 140 µM in “purified protein [2]”; 116 ± 16 µM in the data set “purified protein [3]”; 225 ± 77 µM in the data set “purified protein [4]”; 17 ± 4.7 µM in the data set “purified protein [5]”; 8.0 ± 3.3 µM in “purified protein [6]”; 7.7 ± 4.3 µM in the data set “purified protein [7]”. Also, the Michaelis-Menten constant (Km) in “purified protein [8]” was 13.2 µM. In addition, the maximal velocity (Vmax) in the data set “purified protein [2]” came out at 6.3 µmol/min/mg; in “purified protein [3]”, 44.2 µmol/min/mg; in the data set “purified protein [4]”, 12.7 µmol/min/mg; in the data set “purified protein [5]” it was 12.1 µmol/min/mg; in the data set “purified protein [6]”, 3.64 µmol/min/mg; in the data set “purified protein [7]”, 4.39 µmol/min/mg. In addition, the Vmax in the data set “purified protein [8]” was determined as 45.1 µmol/min/mg.

For the origin of these results see paper PMC8345934, “Biochemical Studies of Mitochondrial Malate: Quinone Oxidoreductase from Toxoplasma gondii” (International Journal of Molecular Sciences, 2021).
